Legend:
[1] = target: canine PD-L1-His (canine); test: SPR (Biacore X100), cPD-L1-His captured by anti-histidine antibody on a CM5 chip, canine CD80-Ig as analyte
[2] = target: canine PD-L1-His (canine); test: SPR (Biacore X100), cPD-L1-His captured by anti-histidine antibody on a CM5 chip, canine PD-1-Ig as analyte

Row | Kd [1] [nM] | Kd [2] [nM] | Substance
1 | 24.3 | – | canine CD80-Ig (Fc fusion)
2 | – | 25.4 | canine PD-1-Ig (Fc fusion)

Source: patent publication US20250066483A1
